According to US20260028403A1 (Zymeworks, published 2026):

B1: v37635 (trispecific antibody, human IgG1, lambda, L234A L235A)
heavy 1: EVQLVESGGGLVQPGGSLRLSCAASGVTFNYYGMSWIRQAPGKGLEWVASITSSGGRIYYPDSVKGRFTISRENTQKTLYLQMNSLRAEDTAVYYCTLDGRDGWVAYWGQGTLVTVSSASTKGPSVFPLAPSSKSTSGGTAALGCLVKDYFPEPVTVSWNSGALTSGVHTFPAVLQSSGLYSLSSVVTVPSSSLGTQTYICNVNHKPSNTKVDKKVEPKSCDKTHTCPPCPAPEAAGGPSVFLFPPKPKDTLMISRTPEVTCVVVSVSHEDPEVKFNWYVDGVEVHNAKTKPREEQYNSTYRVVSVLTVLHQDWLNGKEYKCKVSNKALPAPIEKTISKAKGQPREPQVYVYPPSRDELTKNQVSLTCLVKGFYPSDIAVEWESNGQPENNYKTTPPVLDSDGSFALVSKLTVDKSRWQQGNVFSCSVMHEALHNHYTQKSLSLSPGGGGGSGDIQMTQSPSSLSASVGDRVTITCRASESVEYYVTSLMQWYQQKPGKAPKLLIYAASNVDSGVPSRFSGSGSGTDFTLTISSLQPEDIATYYCQQSRKVPFTFGGGTKVEIKGGGGSGGGGSGGGGSGGGGSQVQLQESGPGLVKPSETLSLTCAVSGFSLTSYGVHWIRQPPGKGLEWLGVIWPGGGTNFNSALMSRLTISEDTSKNQVSLKLSSVTAADTAVYYCARDRAYGNYLYAMDYWGQGTLVTVSS
heavy 2: QVQLVESGGGLVQPGGSLRLSCSVSGIDLSSNPMIWVRQAPGKGLQYIGIIDTDGSTYYADWAKGRFTISKDSTTVYLQINSPRAEDTAVYYCARRLHGSSNGYYDDLWGQGTLVTVSSGGGGSGGGGSGGGGSGGGGSDGQMTQSPSSVSASVGDRVTITCQASQSIYSYLSWYQQKPGQRPKLLIYKASTLASGVPSRFSGSGSGTDFTLTISSVQPEDFATYYCQQGYTVTNVDKNTFGGGTKVEIKAAEPKSSDKTHTCPPCPAPEAAGGPSVFLFPPKPKDTLMISRTPEVTCVVVSVSHEDPEVKFNWYVDGVEVHNAKTKPREEQYNSTYRVVSVLTVLHQDWLNGKEYKCKVSNKALPAPIEKTISKAKGQPREPQVYVLPPSRDELTKNQVSLLCLVKGFYPSDIAVEWESNGQPENNYLTWPPVLDSDGSFFLYSKLTVDKSRWQQGNVFSCSVMHEALHNHYTQKSLSLSPG
light: NFMLTQPHSVSESPGKTVTISCKRNTGNIGSNYVNWYQQHEGSSPTTIIYRNDKRPDGVSDRFSGSIDRSSKSASLTISNLKTEDEADYFCQSYSSGFIFGGGTKLTVLGQPKAAPSVTLFPPSSEELQANKATLVCLISDFYPGAVTVAWKADSSPVKAGVETTTPSKQSNNKYAASSYLSLTPEQWKSHRSYSCQVTHEGSTVEKTVAPTECS
notes: Het Fc, FcKO; also called CD3xCD28xCldn18.2 trispecific
B2: v37663 (bispecific antibody, human IgG1, lambda, L234A L235A)
heavy 1: not shown
heavy 2: B1 heavy 2
light: B1 light
notes: 13B08 VH-VL scFv); also called anti-(CLDN18.2xCD3) bispecific control
B3: v37633 (trispecific antibody, human IgG1, lambda, L234A L235A)
heavy 1: not shown
heavy 2: B1 heavy 2
light: B1 light
notes: Het Fc, FcKO; also called CD28xCD3xCldn18.2 trispecific
B4: v34917 (trispecific antibody, human IgG1, lambda, L234A L235A)
heavy 1: B1 heavy 1
heavy 2: EIVLTQSPATLSLSPGERVTMSCSASSSVSYMHWYQQKPGQAPRLWIYDTSKLASGVPARFSGSGSGTDYTLTISSVEPEDNAVYYCQQWSGHPLTFGQGTKVEIKGGGGSGGGGSGGGGSGGGGSQVQLVQSGAEVKKPGASVKISCKASGYSFTGYTMNWVRQAPGQGLEWIGLITPYSGASSYAQKFQGRATLTVDKSTSTAYMELSSLRSEDTAVYYCARGGYDGRGFDYWGQGTNVTVSSAAEPKSSDKTHTCPPCPAPEAAGGPSVFLFPPKPKDTLMISRTPEVTCVVVSVSHEDPEVKFNWYVDGVEVHNAKTKPREEQYNSTYRVVSVLTVLHQDWLNGKEYKCKVSNKALPAPIEKTISKAKGQPREPQVYVLPPSRDELTKNQVSLLCLVKGFYPSDIAVEWESNGQPENNYLTWPPVLDSDGSFFLYSKLTVDKSRWQQGNVFSCSVMHEALHNHYTQKSLSLSPG
light: B1 light
notes: Het Fc, FcKO; also called CD28xCD3xMSLN trispecific
B5: v34918 (trispecific antibody, human IgG1, kappa, L234A L235A)
heavy 1: QVQLQESGPGLVKPSETLSLTCAVSGFSLTSYGVHWIRQPPGKGLEWLGVIWPGGGTNFNSALMSRLTISEDTSKNQVSLKLSSVTAADTAVYYCARDRAYGNYLYAMDYWGQGTLVTVSSASTKGPSVFPLAPSSKSTSGGTAALGCLVKDYFPEPVTVSWNSGALTSGVHTFPAVLQSSGLYSLSSVVTVPSSSLGTQTYICNVNHKPSNTKVDKKVEPKSCDKTHTCPPCPAPEAAGGPSVFLFPPKPKDTLMISRTPEVTCVVVSVSHEDPEVKFNWYVDGVEVHNAKTKPREEQYNSTYRVVSVLTVLHQDWLNGKEYKCKVSNKALPAPIEKTISKAKGQPREPQVYVYPPSRDELTKNQVSLTCLVKGFYPSDIAVEWESNGQPENNYKTTPPVLDSDGSFALVSKLTVDKSRWQQGNVFSCSVMHEALHNHYTQKSLSLSPGGGGGSGNFMLTQPHSVSESPGKTVTISCKRNTGNIGSNYVNWYQQHEGSSPTTIIYRNDKRPDGVSDRFSGSIDRSSKSASLTISNLKTEDEADYFCQSYSSGFIFGGGTKLTVLGGGGSGGGGSGGGGSGGGGSEVQLVESGGGLVQPGGSLRLSCAASGVTFNYYGMSWIRQAPGKGLEWVASITSSGGRIYYPDSVKGRFTISRENTQKTLYLQMNSLRAEDTAVYYCTLDGRDGWVAYWGQGTLVTVSS
heavy 2: B4 heavy 2
light: DIQMTQSPSSLSASVGDRVTITCRASESVEYYVTSLMQWYQQKPGKAPKLLIYAASNVDSGVPSRFSGSGSGTDFTLTISSLQPEDIATYYCQQSRKVPFTFGGGTKVEIKRTVAAPSVFIFPPSDEQLKSGTASVVCLLNNFYPREAKVQWKVDNALQSGNSQESVTEQDSKDSTYSLSSTLTLSKADYEKHKVYACEVTHQGLSSPVTKSFNRGEC
notes: as for B4

target: T1, Human CLDN18.2 (human); assay: flow cytometry, SNU 601 cells
T1 construct: on transfected HEK293-6E cells or native on SNU 601 cells

Row | Binder | Bmax [MFI] | EC50 [nM]
1 | B1 | 6600 | 30.1
2 | B2 | 9200 | 31.3
3 | B3 | 8570 | 40.8

target: T2, Recombinant MSLN his tag protein (R&D systems) (UniProt Q13421 296-580, limits assumed); assay: SPR Biacore T200, MSLN-his on CM5, construct flowed, 1:1 model
T2 construct: his tag; also called mesothelin

Row | Binder | Kd [nM] | koff [s⁻¹] | kon [M⁻¹ s⁻¹]
4 | B4 | 4.96 | 0.00199 | 411000
5 | B5 | 7.08 | 0.00187 | 294000

target: T3, Recombinant human CD3 epsilon/delta heterodimer, his tag protein (Acro Biosystems) (human, UniProt P07766 23-126; P04234 22-105); assay: SPR Biacore T200, CD3 e/d-his on CM5, construct injected, 1:1 model;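 also: measured at 25 °C in HEPES-buffered saline with EDTA and Tween 20 at pH 7.4, values are means of three independent runs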
T3 construct: bought

Row | Binder | Kd [nM] | koff [s⁻¹] | kon [M⁻¹ s⁻¹]
6 | B4 | 40.8 | 0.0177 | 444000
7 | B5 | 118 | 0.0135 | 118000
8 | B1 | 92.5 | 0.0143 | 157000
9 | B2 | 76.4 | 0.0157 | 206000
10 | B3 | 135 | 0.0176 | 130000

target: T4, Recombinant human/cynomolgus/rhesus macaque CD28 mouse IgG2a Fc fusion protein (Acro Biosystems) (human/cynomolgus/rhesus macaque, UniProt P10747 19-152); assay: SPR Biacore T200, CD28-mIgG2a Fc on CM5, construct injected, 1:1 model;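 also: fc fusion captured by amine coupling, run at 25 °C in HEPES buffer pH 7.4, association 140-500 s then dissociation 600-1200 s, values averaged over three independent runs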
T4 construct: bought; also called huCD28

Row | Binder | Kd [nM] | koff [s⁻¹] | kon [M⁻¹ s⁻¹]
11 | B4 | 373 | 0.00209 | 8240
12 | B5 | 50 | 0.00259 | 52700
13 | B1 | 288 | 0.0107 | 40400
14 | B3 | 55.1 | 0.0062 | 113000
